Measurements reported in the nanobody polyreactivity screen of Harvey et al. (2022).

Assay: yeast display, Sf9 membrane polyspecificity reagent, FACS + sequencing; frameworks hold sequencing errors
Method in brief: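 Genes from sorted yeast were amplified by colony PCR, read by MiSeq 2 × 250 sequencing and filtered on CDR length. These cells carried a synthetic nanobody library in Saccharomyces cerevisiae BJ5465 and were sorted by FACS into low and high (top ~1%) gates on anti-HA and streptavidin fluorescence. Polyreactivity is labelled according to the gate of origin.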

Sequence | polyreactivity (PSR sort gate)
QVQLVESGGGLVQAGGSLRLSCAASGSTFESYAMGWYRQAPGKERELVAAISWRVGSTYYADSVKGRFTISRDNAKNTVYLQMNSLKPEDTAVYYCASKGWYSHYGGYDYWGQGTQVTVSS | low polyreactivity
QVQLVESGRGLVQAGGSLRLSCAASGRTFVYYAMGWYRQAPGKERELVAAISRSGSTYYADSVKGRFTISRDNAKNTVYLQMNSLKPEDTAVYYCARPGGPDRTSSPYPYPYGYWGQGTQVTVSS | low polyreactivity
QVQLVESGGGLVQAGGSLRLSCAASGSTFAIYAMGWYRQAPGKERELVAAITRGSTSYADSVKGRFTISRDNAKNTVYLQMNSLKPEDTAVYYCAADSSRYGVIRDFDYWGQGTQVTVSS | high polyreactivity
QVQLVESGGGVVQAGGSLRLSCAASGSTISPYAMGWYRPAPGKERELVAAISSGGSTSYADSVKGRFTISRDNAKNTVYLQMNSLKPEDTAVYYCHASSPGEVPVYDYDYWGQGTQVTVSS | low polyreactivity
QVQLVESGGGLVQAGGSLRLSCAASGSTFGYYAMGWYRQEPGKERELVAAISRGSSTYYADSVKGRFTISRDNAKNTVYLQMNSLKPEDTAVYYCAAKRYAYGSLDYWGQGTQVTVSS | high polyreactivity
QVQLVESGGGLVQAGGSLRLSCAASGRTFRYNAMGWYRQAPGKERELVAAISRSGGRTYYADSVKGRFTISRDNAKNTVYLQMNSLKPEDTAVYYCNAAPSWSTSFDSWGQGTQVTVSS | high polyreactivity
QVQLEESGGGLVQAGGSLRLSCAASGRIFATNAMGWYRQAPGKERELVATITRSAGRTYYADSVKGRFTISRDNAKNTVYLHMNSLKPEDTAVYYCASSYWDTEPVYREYDYWGQGTQVTVSS | low polyreactivity
QVQLVESGGGLVQAGGSLRLSCAASGRIFSSYVMGWYRQAPGKERELVAAIRWSGGSTYYADSVKGRFTISRDNAKNTVYLQMNSLKPEDTAVYYCAARHVLYGYYLYDYWGQGTQVTVSS | high polyreactivity
HVQLEESGGGLVQAGGSLRLSCAASGRIFYPYAMGWYRQAPGKERELVAAISRSGGSTYYADSVKGRFTISRDNAKNTVYLQMNSLKPEDTAVYYCATGFYRAISHHGYDYWGQGTQVTVSS | low polyreactivity
QVQLVESGGGLVQAGGSLRLSCAASGFIFRAYAMGWYRQAPGKERELVAAISGSGGSTYYADTVKGRFTISRDNAMNTVDLQMNSLKPEDTAVYYCNKYVGYYAYNYNYWGQGTQVTVSS | high polyreactivity
QVQLVESGGGLVQAGGSLRLSCAASGRIFDFNAMGWYRQAPGKDRELLAAISRGGGSTYYADSVKGRFTMSRDNAKYTVYLQMNSLKPEDTAVYYCNADYYYPLRSNKYYYWGQGTQVTVSS | high polyreactivity
QVQLVESGGGLVQAGGSLRLSCAASGRIFGRYAMGWYRQAPGKERELVAAITSSGGNTYYADSVKGRFTISRDNAKNTVYLQMNSLKPEDTAVYYCNALSARSRLQSDYWGQGTQVTVSS | high polyreactivity
QVQLVESGGGLVQAGGSLRLSCAASGSNFRANAMGWYRQATGKERELVAAISKSGGSTYYADSVKGRFRISRDNAKNTVYLQMNSLKPEDTGVYYCAARTTYLYGMYYWGQGTQVTVSS | low polyreactivity
QVQLVESGGGLVQAGGSLRLSCAASGSTFWYYAMGWYRQAPGKEREFVAAITTSAGRTYDADSVKGRFTISRDHAKNTVYLQMNSLKPEDTAVYYCAAEPRQYWEYNYWGQGTQVTVSS | high polyreactivity
QVQLVESGGGLVQAGGSLRLSCAASGSTFALYAMGWYRQAPGKERELVASITLSGGRTYYADSVKGRFTISRDNAKNTVYLQMNSLKPEDTAVDYCNAEDYDWMDYWGQGTQVTVSS | high polyreactivity
QVQLVESGGGLVQAGGSIRLSCAASGRISAPNAMGWYRQAAVKERELVAAISSGGRTNYADSVKGRFTISRDNEKNTVYLQMNSLKPEDTAVYYCAAYYYNDRMYYWGQGNQVTVSS | high polyreactivity
QVQLVESGGGLVQAGGSLRLSCAASGRIFYFYAMGWYRQAPGKERELVASISSGSSTNYADSVKGRFTISRDNAKNTVYLQMNSLKPEDTAVYYCAAQPWHGSRPRSYYWGQGTQVTVSS | high polyreactivity
QVQLVEEGGGLVQAGGSLRLSCAASGRISYYYTMGWYSQAPGKERELVAAISWSGGTTYYADSVKGRFTISRDNAKYTVYLQMYSLKPEDTAVYYCAARDYYTDFHGTRRYDYWGQGTLVTVSS | low polyreactivity
QVHLVESWGGLVQAGGSLRLSCAASGSIFYYYAMGWYRLAPGKERELVAAITSGGSTYYADSVKGRFTISRDNAKNTVYLQMNSLKPEDTAVYYCAAVFYAAYLRYVWYSYDYWGQGTQVTVSS | low polyreactivity
QVQLVESGGGLVQAGGSLRLSCAASGSIFWSYAMGWYRQAPGKERELVAAITYSGTSTYYADSVKGRFTISRDNAKNTVYLQMNSLKPEDTAVYYCNADAYVYFDDGDYWGQGTQVTVSS | low polyreactivity
QVQLVESGGGLVQAGGSLRLSCAASGFTFGSNTMGWYRQAPGKERELVAAITTSGDSTYYADSVKGRFTISRDNAKNTVYLQMNSLKPEDTAVYYCAARTYYQGGYYYWGPGTQVTVSS | high polyreactivity
QDQLVESGGGLVQAGGSLRLSCAASGLTFPEYAMGWYRQAPGKERELVAAITWSGATTYYADSVKGRFTISRDNAKNTVYLQMNSLKPEDTAVYYCAAEYTVYNTALPGYYFTYYYWGQGTQVTVSS | high polyreactivity

Sequence | polyreactivity (PSR sort gate)
QVQLVESGGGLVQAGGRLRLSCAASGRTFLYYAMGWSRQAPGKERELVAAINWRGTRTYYADSVKGRFTISRDNAQNTVYLQMNSLKPEDTAVYYCNRQGPDFHLRAGQGNYWGQGTQVTVSS | high polyreactivity
QVQLVESGGGLVQSGGSLRLSCAASGSTFSTYAMGWYRQAPGKERQLVAGITGSGGRTYYADSVKGRFTISRDNAKHTVYLQMNSMKPEDTGVYYCAASTRGYKWVGRDYDYWGQGTQVTVSS | high polyreactivity
QVQLVESGGGLVQAGGSLRLSCAASGRTLPFYAMGWYRQAPGKERELLAAINRSGGSTYYADSVKGRFTISRDNAKNTVSLQMNILKPEDTAVYYGNNVTVPGLGYYPPSYSNGHWGQGTQVSVSS | high polyreactivity
QVQLVESGGGLVQAGGSLRLSCAASGSTFYGYAMGGNRQAPGKERELVAAMTWGGASTYYADSVKGRFTIARDNAKNTVYLQMNSLKPEDTAVYYCATVGWGYQPYPFGMDYWGQGTQVTVSS | low polyreactivity
QVQLVESGGGLVQAGGSLRLSCAASGLTFYLYAMGWYRQAPGKERELVAAISRSGGSTYYADSVKGRFTISRDNAKNTVYVQMYSLKPEDTAVYYCAAVTYYPEIRKYYDWRQGTQVTVSS | high polyreactivity
QVQLVESGGGLVHAGGSLRLSCAAYGFIFRYYAMGRYRQAPGKEMELVATISSGGRTYYADSVKGRFTISRDNAKNTVYLQMNSLKPEDTAVYYCAKDYSWASYNHDYWGQGTQVTVSS | low polyreactivity
QVQLVESGGGLVQAGGSLRLSCAASGITFRYYAMGWSRQAPGKERELVAAITRGGRTNYADSVKGRFTISRDNAKNTVYLQMNSLKPEDTAVYYCATGRDSNFGNSYYYWGQGTQVTVSS | high polyreactivity
QVQLVESGGGLVQAGGSLRLSCAASGIIFRRYAMGWYRQAPGKERQLVARISFRGGSTYYADSVKGRFTISRDNAKNTVYLQMNSLKPEDTAVYYCNRDPRYSKEVDGDYWGQGTQVTVSS | high polyreactivity
QVQLVESGGGLVQAGGSLRLSCAASGSTFTFYAMGWYRQAPGKERELVATISSSGGSTYYADSVKGRFTFSRDNAKKTVYLQMNSLKPEDTAVYYCAADPSIVDGEYGYWGQGTQVTVSS | low polyreactivity
QVQLVESGGGLVQAGGSLRLICAASGRIFGLNAMGWYRQAPGKEREFVAAITWRGGRTYYADSVKGRFTISRDNAKNTVYLQMNSLKPEDTAVYYCAADGGSTLDYYWGQGTQVTVSS | low polyreactivity
QVPLVESAGGLVQAGGSLRLSCAASGSTFYPYAMGWYRQAPGKERELVAAISSGGSTSYADSVKGRFTISRDNAKNTVYLQMNSLKPEDTEVYYCHASSPGAVPVYDYDYWGQGTQVTVSS | low polyreactivity
QVQLVESGGGLVQAGGSLRLSCAASGRTLIFYAMGWYRQAPGKERELVAAISGSGGRTYYADSVKGRFTISRDNAKNTVYLQMNSLKPEDTAVYYCNRRHSYPYDYWGQGTQVTVSS | high polyreactivity
QVQLVESGGGLVQAGGSLRISCDASGSIISRNAMGWYRQAPGKEREFVAAITRSGGSTSYADSVKGRFTISRDNAKNTVYLQMNSLKPEDTAVYYCAASYARSATAYYKYYDWGQGTQVTVSS | high polyreactivity
QVQLVESGGGLVHAGGSLRLSCAASGFTFSYYAMVWYREAPGKEREFVAAISRSGGSTYYADSVKGRFTISRDNAKNTVYLQMNSLYPVDTAVYYCATELSYRHGYWGQGTQVSVSS | high polyreactivity
QVQLVESGGGLVQAGGSLRLSCAASGRTFGYNAMGWYRQAPGKERELVAAITRGGSTYYADSVKGRFTISRDNAKNTVYLQMNSLKPEDTAVYYCAAKSYWSGYFVGYEYWGQGTQVTVSS | high polyreactivity
QVQLVESGGGLVQAGGSLRLSCAASGITFGFYTMGWYRQAPGKERELVAAITSGGSTSYADSVKGRFTISRDNAKNTVYLQMNSLKPEDTAVYYCAADYLNPFPPYQYWKQSYDYWGQGTQVTVSS | low polyreactivity
QVQLVESGGGLVQAGGSLRLSCAASGNTFYINAMGWYRQAPGKERELVAAINYSGESTYADSVKGRFTISRDNAKNTVYFQMNSLKPEDTAVYYCAADWYFSVYIDYDTEYDYWGQGTQVTVSS | low polyreactivity
QVQLVESGGGLVQAGGSLRLSCAASGRTFLPYAMGWYRQAPGKEWELVAAIDSSGGSTYYADSVKGRFTISRDNAKNTVYLQMNSLKPEDTAVYYCAADLYSSYYLYDSWGQGTQVTVSS | low polyreactivity
QVQLVESGGGLVQAGGSLRLSCAASGSTFNRTPMGWYRQAPGKERELVAGISAGGRTYYTDSVKGRFTISRDNAKNTVYLLMNSLKPEDTAVYDCGTTSWWRCDLHTYLLTHYDYWGQGSQVTVSS | low polyreactivity
QVQLVESGGGLVQAGGSLRLSCAASGRNFRVNAMGWYTQAPGKERELVAAISWIGGRTYYADSVKGRFTISRDNAKNTVYLQMNSLKPEDTAVYYCAAGTRRYYYWKYDYWGQGTQVTVSS | high polyreactivity
QVQLVESGGGLVQAGGSLRLSCAASGLTFSWYAMGWYRQAPGKEREFVATISASGGSTYYADSVKGRFTISRDNAKNTVYLQMNSLKPEDTAVYYCNAIYFRYRNGGYDYWGQGTQVTVSS | high polyreactivity
